Assay results: US20150071923A1 (published 2015)
Read-outs that look alike come from different tables or passages of the source.

B1: flag-tagged humanized T030F/Y104D/Q111P mutant anti-EGFR antibody (FDP-h3) (antibody, human IgG1, kappa, V domains shown)
VH: EVQLVQSGAEVKKPGATVKISCKVSGFSLFNYGVHWVRQATGQGLEWMGVIWSGGNTDYNTPFTSRFTISRDDSKNTAYLQMNSLKTEDTAVYYCARALTYYDDEFAYWGPGTLVTVSS
VL: AIQLTQSPSSLSASVGDRVTITCRASQSIGTNIHWYLQKPGQSPQLLIYYASESISGIPDRFSGSGSGTDFTLTISRLEPEDFAVYYCQQNNNWPTTFGQGTKVEIKR
notes: also called FDP-h03
B2: huY104D-MMAE antibody-drug conjugate (antibody, human IgG1, kappa)
heavy: not shown
light: AIQLTQSPSSLSASVGDRVTITCRASQSIGTNIHWYLQKPGQSPQLLIYYASESISGIPDRFSGSGSGTDFTLTISRLEPEDFAVYYCQQNNNWPTTFGQGTKVEIKRTVAAPSVFIFPPSDEQLKSGTASVVCLLNNFYPREAKVQWKVDNALQSGNSQESVTEQDSKDSTYSLSSTLTLSKADYEKHKVYACEVTHQGLSSPVTKSFNRGEC
modifications: MMAE conjugated as described in Example 18 (maleimidocaproyl-vcPAB linker on reduced disulfide cysteines)
B3: huY104E-MMAE antibody-drug conjugate (antibody, human IgG1, kappa)
heavy: not shown
light: B2 light
modifications: MMAE conjugated as described in Example 18 (maleimidocaproyl-vcPAB linker on reduced disulfide cysteines)
B4: humanized Y104D/Q111P cetuximab mutant antibody (DP-h7) (antibody, human IgG1, kappa)
heavy: not shown
light: B2 light
notes: Full-length IgG; also called DP-h07
B5: humanized Y104D anti-EGFR antibody (D-h) (antibody, human IgG1, kappa)
heavy: not shown
light: B2 light
notes: Full-length IgG; also called huY104D; D-h07
B6: humanized Y104E anti-EGFR antibody (E-h) (antibody, human IgG1, kappa)
heavy: not shown
light: B2 light
notes: Full-length IgG; also called huY104E; E-h07
B7: humanized Y104E/Q111P anti-EGFR antibody (EP-h) (antibody, human IgG1, kappa)
heavy: not shown
light: B2 light
notes: Full-length IgG; also called EP-h07

How the values were obtained:
[1] = biological target: T1, His-tagged soluble extracellular domain of EGFR (sEGFR-H6; Sino Biologics, Cat #10001-H08H) (human, UniProt P00533 25-645); test: ELISA on coated sEGFR-H6; pH 6.5, 16.7 mM lactic acid, 25% human serum
T1 construct: Bought protein; also called EGFR sECD; soluble extracellular domain of EGF receptor

[2] = biological target: T1, His-tagged soluble extracellular domain …; test: ELISA on coated sEGFR-H6; pH 7.4, 1 mM lactic acid, 25% human serum
[3] = biological target: T1, His-tagged soluble extracellular domain …; test: pH-sensitive ELISA on coated sEGFR-H6
[4] = biological target: T1, His-tagged soluble extracellular domain …; test: ELISA on coated sEGFR-H6; pH 6.0, 16.7 mM lactic acid, 25% human serum
[5] = biological target: human epidermal growth factor receptor (EGFR) on cells and tissues (human, UniProt P00533 25-1210); test: cell-based or functional assay
[6] = biological target: T1, His-tagged soluble extracellular domain …; test: ELISA on coated sEGFR-H6; pH 6.0, 16.7 mM lactic acid, 25% human serum; remark: listed apart in the source
[7] = biological target: T1, His-tagged soluble extracellular domain …; test: ELISA on coated sEGFR-H6; pH 7.4, 1 mM lactic acid, 25% human serum; remark: listed apart in the source
[8] = biological target: T1, His-tagged soluble extracellular domain …; test: ELISA on coated sEGFR-H6; pH 6.5, 16.7 mM lactic acid, 25% human serum; remark: listed apart in the source
[9] = biological target: T1, His-tagged soluble extracellular domain …; test: pH-sensitive ELISA, transfected supernatant adjusted to 1 ng/mL
[10] = biological target: T1, His-tagged soluble extracellular domain …; test: pH-sensitive ELISA, transfected supernatant adjusted to 2 ng/mL
[11] = biological target: T1, His-tagged soluble extracellular domain …; test: pH-sensitive ELISA, transfected supernatant adjusted to 4 ng/mL
[12] = biological target: T1, His-tagged soluble extracellular domain …; test: pH-sensitive ELISA on coated sEGFR-H6; remark: listed apart in the source
[13] = biological target: T1, His-tagged soluble extracellular domain …; test: pH-sensitive ELISA on coated sEGFR-H6; remark: listed apart in the source
[14] = biological target: T1, His-tagged soluble extracellular domain …; test: ELISA on coated sEGFR-H6; pH 6.0, 16.7 mM lactic acid, 25% human serum; remark: listed apart in the source
[15] = biological target: T1, His-tagged soluble extracellular domain …; test: ELISA on coated sEGFR-H6; pH 7.4, 1 mM lactic acid, 25% human serum; remark: listed apart in the source
[16] = biological target: T1, His-tagged soluble extracellular domain …; test: ELISA on coated sEGFR-H6; pH 6.5, 16.7 mM lactic acid, 25% human serum; remark: listed apart in the source

Binder | D (maximum) of 4-parameter fit [6] [OD450] | EC50 [6] [ng/mL] | D (maximum) of 4-parameter fit [7] [OD450] | EC50 [7] [ng/mL] | D (maximum) of 4-parameter fit [8] [OD450] | EC50 [8] [ng/mL] | ratio of binding activity pH 6.0/7.4 (inverse EC50) [12] | ratio of binding activity pH 6.5/7.4 (inverse EC50) [12] | ratio of binding activity pH 6.0/7.4 (inverse EC50) [13] | ratio of binding activity pH 6.5/7.4 (inverse EC50) [13] | D (maximum) of 4-parameter fit [14] [OD450] | EC50 [14] [ng/mL] | D (maximum) of 4-parameter fit [15] [OD450] | EC50 [15] [ng/mL] | D (maximum) of 4-parameter fit [16] [OD450] | EC50 [16] [ng/mL] | further results
B1 | – | – | – | – | – | – | – | – | – | – | – | – | – | – | – | – | D (maximum) of 4-parameter fit [1]: 3.76 OD450; EC50 [1]: 4.87 ng/mL; D (maximum) of 4-parameter fit [2]: 3.65 OD450; EC50 [2]: 32.6 ng/mL; ratio of binding activity pH 6.0/7.4 (inverse EC50) [3]: 7.53; ratio of binding activity pH 6.5/7.4 (inverse EC50) [3]: 6.69; D (maximum) of 4-parameter fit [4]: 3.79 OD450; EC50 [4]: 4.33 ng/mL
B2 | – | – | – | – | – | – | – | – | – | – | – | – | – | – | – | – | IC50 for cell growth inhibition of keratinocytes at pH 7.4 [5]: ~17 nM; cell growth inhibition of HT29 cells at pH 6.8; concentration for about 50% inhibition [5]: ~22 nM; cell growth inhibition of HT29 cells at pH 6.8; maximum concentration tested [5]: ~80%
B3 | – | – | – | – | – | – | – | – | – | – | – | – | – | – | – | – | IC50 for cell growth inhibition of keratinocytes at pH 7.4 [5]: ~5.4 nM; cell growth inhibition of HT29 cells at pH 6.8; concentration for about 50% inhibition [5]: ~22 nM; cell growth inhibition of HT29 cells at pH 6.8; maximum concentration tested [5]: ~80%
B4 | 3.83 | 4.15 | 3.14 | 33.6 | 3.83 | 6.91 | 8.1 | 4.86 | – | – | – | – | – | – | – | – | pH 6.0/pH 7.4 OD ratio [9]: 17.4; pH 6.0/pH 7.4 OD ratio [10]: 7.21; pH 6.0/pH 7.4 OD ratio [11]: 11.3
B5 | 3.89 | 4.87 | 3.45 | 30.2 | 3.84 | 7.57 | 6.2 | 3.99 | 8.33 | 4.44 | 3.88 | 6.77 | 2.03 | 56.4 | 3.82 | 12.7 | –
B6 | 3.92 | 3.18 | 3.23 | 46.1 | 3.85 | 5.87 | 14.5 | 7.85 | 12.3 | 6.04 | 3.87 | 4.82 | 1.44 | 59.3 | 3.94 | 9.82 | –
B7 | 3.92 | 3.92 | 2.91 | 69.8 | 3.89 | 6.37 | 17.8 | 11 | 48.8 | 17.3 | 3.91 | 4.28 | 1.83 | 209 | 3.93 | 12.1 | –
